First the molecules themselves.
T1: σ^L 1-177 (Mycobacterium tuberculosis sigma factor L, Rv0735), N-term His-tag (Mycobacterium tuberculosis, UniProt P9WGH5 1-177)
T1 construct: range 1-177; also called SigL; Mtb σ^L; not shown: N-terminal His-tag from pET-Duet1 MCS1
T1 sequence: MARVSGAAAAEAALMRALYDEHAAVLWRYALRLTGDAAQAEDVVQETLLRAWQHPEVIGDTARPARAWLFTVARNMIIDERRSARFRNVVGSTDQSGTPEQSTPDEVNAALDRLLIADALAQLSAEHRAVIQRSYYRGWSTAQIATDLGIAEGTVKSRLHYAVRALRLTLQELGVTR

B1: σ^L2 domain of M. tuberculosis σ^L (N-term His-tag σ^L 1-95) (other)
chain: MARVSGAAAAEAALMRALYDEHAAVLWRYALRLTGDAAQAEDVVQETLLRAWQHPEVIGDTARPARAWLFTVARNMIIDERRSARFRNVVGSTDQ
notes: range 1-95; not shown: N-terminal His-tag from pET-Duet1 MCS1
B2: holo-RslA 1-108 (Zn2+ bound N-terminal cytosolic domain of M. tuberculosis anti-σ^L factor RslA), N-term His-tag (other)
chain: MTMPLRGLGPPDDTGVREVSTGDDHHYAMWDAAYVLGALSAADRREFEAHLAGCPECRGAVTELCGVPALLSQLDRDEVAAISESAPTVVASGLSPELLPSLLAAVHR
modifications: Zn2+ bound in 1:1 stoichiometry (holo, reduced; three free cysteines)
notes: range 1-108; Immobilized on a CM5 chip for SPR; Self-associates into dimers and tetramers in solution; also called Mtb RslA; Rsl1A 1-108; not shown: N-terminal His-tag from pET-Duet1 MCS1

Data set [1] addresses B2. Nature of the data set: SPR (BIACORE 2000), RslA immobilized on CM5 chip, σ^L2 as analyte.
Data set [2] deals with the molecule itself. Nature of the data set: analytical gel filtration; dynamic light scattering. In general terms: Size exclusion chromatography separates by hydrodynamic size, large species first.
In data set [3] the target is T1, σ^L 1-177 (Mycobacterium tuberculosis …). Put plainly: SPR (BIACORE 2000), RslA immobilized on CM5 chip, σ^L as analyte. Background: SPR reads the build-up and loss of mass on a sensor chip optically.

One may read the Kd as the equilibrium constant for the complex coming apart. On to B1, for which, in data set [1], the Kd is approximately 2000 nM and the “fold reduction in affinity against intact σ^L” value is approximately 100 fold.

For B2, in data set [2], the binding result is listed as “binds”. The molecule further yielded a Kd in data set [3] of approximately 20 nM.

The values above are taken from patent US20110021367A1 (INDIAN INSTITUTE OF SCIENCE, published 2011).
